B1: USP39 (parent)
chain: FQGSMRIFTKKLPHPDLPAEEKEQ

Variants of: B1
Assay: protein stability index of a GFP-peptide fusion (GPS, HEK-293T) (PSI 1-6); higher = more stable
Conditions: c terminus: a fixed tail appended
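Also: lentivirally expressed fusions sorted by FACS into six bins by GFP to DsRed ratio, PSI derived from sequencing read proportions per bin multiplied by bin number.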

Which protein stability index does the source give for FQGSMRIFTKKLPHPWLPAEEKEQ [D16W] here?
Its protein stability index is 2.67.

For FQGSMRIFTKKLPHPRLPAEEKEQ [D16R], which protein stability index is on record?
The protein stability index was 2.17.

With FQGSMRIFTKKLPHPVLPAEEKEQ [D16V] as the variant, how does the protein stability index read?
Its protein stability index is 1.99.

With FQGSMRIFTKKLPHPGLPAEEKEQ [D16G] as the variant, how does the protein stability index read?
The protein stability index was 1.97.

Which protein stability index does the source give for FQGSMRIFTKKLPHPYLPAEEKEQ [D16Y] here?
The protein stability index was 2.18.

For FQGSMRIFTKKLPHPMLPAEEKEQ [D16M], which protein stability index is on record?
The protein stability index was 1.76.

Which protein stability index does the source give for FQGSMRIFTKKLPHPLLPAEEKEQ [D16L] here?
The protein stability index was 2.3.

With FQGSMRIFTKKLPHPCLPAEEKEQ [D16C] as the variant, how does the protein stability index read?
Its protein stability index is 1.54.

Which protein stability index does the source give for FQGSMRIFTKKLPHPFLPAEEKEQ [D16F] here?
Its protein stability index is 2.16.

With FQGSMRIFTKKLPHPELPAEEKEQ [D16E] as the variant, how does the protein stability index read?
The protein stability index was 2.18.

With FQGSMRIFTKKLPHPPLPAEEKEQ [D16P] as the variant, how does the protein stability index read?
The protein stability index was 1.73.

For FQGSMRIFTKKLPHPILPAEEKEQ [D16I], which protein stability index is on record?
Its protein stability index is 2.13.

Which protein stability index does the source give for FQGSMRIFTKKLPHPHLPAEEKEQ [D16H] here?
The protein stability index was 2.12.

With FQGSMRIFTKKLPHPDLPAAEKEQ [E20A] as the variant, how does the protein stability index read?
Its protein stability index is 1.9.

With FQGSMRIFTKKLPHPDLPASEKEQ [E20S] as the variant, how does the protein stability index read?
The protein stability index was 2.16.

Which protein stability index does the source give for FQGSMRIFTKKLPHPDLPAYEKEQ [E20Y] here?
Its protein stability index is 1.87.

For FQGSMRIFTKKLPHPDLPAVEKEQ [E20V], which protein stability index is on record?
The protein stability index was 1.5.

For FQGSMRIFTKKLPHPDLPAREKEQ [E20R], which protein stability index is on record?
The protein stability index was 1.95.

Which protein stability index does the source give for FQGSMRIFTKKLPHPDLPATEKEQ [E20T] here?
The protein stability index was 2.17.

Which protein stability index does the source give for FQGSMRIFTKKLPHPDLPAKEKEQ [E20K] here?
Its protein stability index is 2.51.

Which protein stability index does the source give for FQGSMRIFTKKLPHPDLPAMEKEQ [E20M] here?
Its protein stability index is 1.67.

With FQGSMRIFTKKLPHPDLPAQEKEQ [E20Q] as the variant, how does the protein stability index read?
The protein stability index was 1.36.

With FQGSMRIFTKKLPHPDLPACEKEQ [E20C] as the variant, how does the protein stability index read?
The protein stability index was 2.12.

With FQGSMRIFTKKLPHPDLPAGEKEQ [E20G] as the variant, how does the protein stability index read?
Its protein stability index is 1.59.

For FQGSMRIFTKKLPHPDLPALEKEQ [E20L], which protein stability index is on record?
The protein stability index was 2.07.

With FQGSMRIFTKKLPHPDLPANEKEQ [E20N] as the variant, how does the protein stability index read?
The protein stability index was 1.51.

Which protein stability index does the source give for FQGSMRIFTKKLPHPDLPADEKEQ [E20D] here?
The protein stability index was 1.87.

For FQGSMRIFTKKLPHPDLPAWEKEQ [E20W], which protein stability index is on record?
The protein stability index was 2.38.

With FQGSMRIFTKKLPHPDLPAFEKEQ [E20F] as the variant, how does the protein stability index read?
The protein stability index was 1.85.

For FQGSMRIFTKKLPHPDLPAIEKEQ [E20I], which protein stability index is on record?
Its protein stability index is 2.03.

With FQGSMRIFTKKLPHPDLPAHEKEQ [E20H] as the variant, how does the protein stability index read?
Its protein stability index is 1.59.

Which protein stability index does the source give for FQGSMRIFTKKLPHPDLPAEEKED [Q24D] here?
Its protein stability index is 2.32.

With FQGSMRIFTKKLPHPDLPAEEKEF [Q24F] as the variant, how does the protein stability index read?
Its protein stability index is 1.87.

Which protein stability index does the source give for FQGSMRIFTKKLPHPDLPAEEKEA [Q24A] here?
The protein stability index was 2.05.

With FQGSMRIFTKKLPHPDLPAEEKEG [Q24G] as the variant, how does the protein stability index read?
The protein stability index was 2.42.

With FQGSMRIFTKKLPHPDLPAEEKEE [Q24E] as the variant, how does the protein stability index read?
The protein stability index was 1.81.

With FQGSMRIFTKKLPHPDLPAEEKEC [Q24C] as the variant, how does the protein stability index read?
Its protein stability index is 2.15.

With FQGSMRIFTKKLPHPDLPAEMKEQ [E21M] as the variant, how does the protein stability index read?
Its protein stability index is 2.23.

Which protein stability index does the source give for FQGSMRIFTKKLPHPDLPAENKEQ [E21N] here?
The protein stability index was 2.36.

Which protein stability index does the source give for FQGSMRIFTKKLPHPDLPAERKEQ [E21R] here?
The protein stability index was 1.96.

For FQGSMRIFTKKLPHPDLPAEAKEQ [E21A], which protein stability index is on record?
Its protein stability index is 1.81.

Which protein stability index does the source give for FQGSMRIFTKKLPHPDLPAETKEQ [E21T] here?
Its protein stability index is 2.01.

Which protein stability index does the source give for FQGSMRIFTKKLPHPDLPAEDKEQ [E21D] here?
The protein stability index was 1.73.

For FQGSMRIFTKKLPHPDLPAEGKEQ [E21G], which protein stability index is on record?
The protein stability index was 1.88.

Which protein stability index does the source give for FQGSMRIFTKKLPHPDLPAEYKEQ [E21Y] here?
The protein stability index was 1.62.

Which protein stability index does the source give for FQGSMRIFTKKLPHPDLPAEKKEQ [E21K] here?
The protein stability index was 1.91.

With FQGSMRIFTKKLPHPDLPAEPKEQ [E21P] as the variant, how does the protein stability index read?
Its protein stability index is 2.02.

For FQGSMRIFTKKLPHPDLPAEVKEQ [E21V], which protein stability index is on record?
The protein stability index was 1.4.

With FQGSMRIFTKKLPHPDLPAEWKEQ [E21W] as the variant, how does the protein stability index read?
Its protein stability index is 1.32.

For FQGSMRIFTKKLPHPDLPAECKEQ [E21C], which protein stability index is on record?
Its protein stability index is 1.54.

Which protein stability index does the source give for FQGSMRIFTKKLPHPDLPAEHKEQ [E21H] here?
Its protein stability index is 2.25.

Which protein stability index does the source give for FQGSMRIFTKKLPHPDLPAEQKEQ [E21Q] here?
The protein stability index was 2.08.

Which protein stability index does the source give for FQGSMRIFTKKLPHPDLPAEIKEQ [E21I] here?
The protein stability index was 2.45.

Which protein stability index does the source give for FQGSMRIFTKKLPHPDLPAEFKEQ [E21F] here?
The protein stability index was 2.29.

Which protein stability index does the source give for FQGSMRIFTKKLPHPDLPAESKEQ [E21S] here?
The protein stability index was 2.12.

With FQGSMRIFTKKLPHPDLPAELKEQ [E21L] as the variant, how does the protein stability index read?
Its protein stability index is 2.04.

With FQGSMRIFTKKLPHPDLPAEEKQQ [E23Q] as the variant, how does the protein stability index read?
The protein stability index was 1.64.

With FQGSMRIFTKKLPHPDLPAEEKRQ [E23R] as the variant, how does the protein stability index read?
The protein stability index was 1.71.

Which protein stability index does the source give for FQGSMRIFTKKLPHPDLPAEEKGQ [E23G] here?
The protein stability index was 2.21.

With FQGSMRIFTKKLPHPDLPAEEKMQ [E23M] as the variant, how does the protein stability index read?
Its protein stability index is 1.85.

For FQGSMRIFTKKLPHPDLPAEEKNQ [E23N], which protein stability index is on record?
Its protein stability index is 2.1.

For FQGSMRIFTKKLPHPDLPAEEKWQ [E23W], which protein stability index is on record?
Its protein stability index is 2.19.

For FQGSMRIFTKKLPHPDLPAEEKKQ [E23K], which protein stability index is on record?
The protein stability index was 1.84.

For FQGSMRIFTKKLPHPDLPAEEKDQ [E23D], which protein stability index is on record?
Its protein stability index is 2.16.

With FQGSMRIFTKKLPHPDLPAEEKSQ [E23S] as the variant, how does the protein stability index read?
The protein stability index was 1.98.

With FQGSMRIFTKKLPHPDLPAEEKAQ [E23A] as the variant, how does the protein stability index read?
The protein stability index was 1.65.

With FQGSMRIFTKKLPHPDLPAEEKFQ [E23F] as the variant, how does the protein stability index read?
The protein stability index was 1.38.

For FQGSMRIFTKKLPHPDLPAEEKVQ [E23V], which protein stability index is on record?
The protein stability index was 1.47.

For FQGSMRIFTKKLPHPDLPAEEKLQ [E23L], which protein stability index is on record?
Its protein stability index is 1.69.

For FQGSMRIFTKKLPHPDLPAEEKHQ [E23H], which protein stability index is on record?
Its protein stability index is 2.18.

Which protein stability index does the source give for FQGSMRIFTKKLPHPDLPAEEKTQ [E23T] here?
The protein stability index was 1.61.

For FQGSMRIFTKKLPHPDLPAEEKCQ [E23C], which protein stability index is on record?
The protein stability index was 1.79.

Which protein stability index does the source give for FQGSMRIFTKKLPHPDLPAEEKPQ [E23P] here?
Its protein stability index is 1.84.

Which protein stability index does the source give for FQGSMRIFTKKLPHPDLPAEEKIQ [E23I] here?
The protein stability index was 1.57.

For FQGSMRIFTKKLPHPDLPAEEKYQ [E23Y], which protein stability index is on record?
The protein stability index was 1.66.

Which protein stability index does the source give for FQGSMRIFTKKLPHHDLPAEEKEQ [P15H] here?
The protein stability index was 2.15.

With FQGSMRIFTKKLPHEDLPAEEKEQ [P15E] as the variant, how does the protein stability index read?
Its protein stability index is 2.19.

For FQGSMRIFTKKLPHMDLPAEEKEQ [P15M], which protein stability index is on record?
The protein stability index was 2.1.

For FQGSMRIFTKKLPHDDLPAEEKEQ [P15D], which protein stability index is on record?
Its protein stability index is 1.73.

Which protein stability index does the source give for FQGSMRIFTKKLPHGDLPAEEKEQ [P15G] here?
The protein stability index was 1.92.

For FQGSMRIFTKKLPHRDLPAEEKEQ [P15R], which protein stability index is on record?
Its protein stability index is 2.03.

Which protein stability index does the source give for FQGSMRIFTKKLPHWDLPAEEKEQ [P15W] here?
Its protein stability index is 1.48.

Which protein stability index does the source give for FQGSMRIFTKKLPHFDLPAEEKEQ [P15F] here?
Its protein stability index is 2.14.

For FQGSMRIFTKKLPHYDLPAEEKEQ [P15Y], which protein stability index is on record?
The protein stability index was 1.34.

For FQGSMRIFTKKLPHSDLPAEEKEQ [P15S], which protein stability index is on record?
Its protein stability index is 1.94.

With FQGSMRIFTKKLPHLDLPAEEKEQ [P15L] as the variant, how does the protein stability index read?
Its protein stability index is 1.85.

For FQGSMRIFTKKLPHKDLPAEEKEQ [P15K], which protein stability index is on record?
The protein stability index was 1.76.

Which protein stability index does the source give for FQGSMRIFTKKLPHVDLPAEEKEQ [P15V] here?
Its protein stability index is 1.62.

For FQGSMRIFTKKLPHTDLPAEEKEQ [P15T], which protein stability index is on record?
The protein stability index was 1.93.

Which protein stability index does the source give for FQGSMRIFTKKLPHIDLPAEEKEQ [P15I] here?
The protein stability index was 1.75.

With FQGSMRIFTKKLPHCDLPAEEKEQ [P15C] as the variant, how does the protein stability index read?
The protein stability index was 1.64.

Which protein stability index does the source give for FQGSMRIFTKKLPHQDLPAEEKEQ [P15Q] here?
Its protein stability index is 1.74.

With FQGSMRIFTKKLPHADLPAEEKEQ [P15A] as the variant, how does the protein stability index read?
The protein stability index was 1.92.

For FQGSMRIFTKKLPHNDLPAEEKEQ [P15N], which protein stability index is on record?
The protein stability index was 2.41.
